IntAct's records for PubMed 24656813

B1: Telomere length regulation protein TEL2 homolog (Homo sapiens), Q9Y4R8 (parent)
chain: MEPAPSEVRLAVREAIHALSSSEDGGHIFCTLESLKRYLGEMEPPALPREKEEFASAHFSPVLRCLASRLSPAWLELLPHGRLEELWASFFLEGPADQAFLVLMETIEGAAGPSFRLMKMARLLARFLREGRLAVLMEAQCRQQTQPGFILLRETLLGKVVALPDHLGNRLQQENLAEFFPQNYFRLLGEEVVRVLQAVVDSLQGGLDSSVSFVSQVLGKACVHGRQQEILGVLVPRLAALTQGSYLHQRVCWRLVEQVPDRAMEAVLTGLVEAALGPEVLSRLLGNLVVKNKKAQFVMTQKLLFLQSRLTTPMLQSLLGHLAMDSQRRPLLLQVLKELLETWGSSSAIRHTPLPQQRHVSKAVLICLAQLGEPELRDSRDELLASMMAGVKCRLDSSLPPVRRLGMIVAEVVSARIHPEGPPLKFQYEEDELSLELLALASPQPAGDGASEAGTSLVPATAEPPAETPAEIVDGGVPQAQLAGSDSDLDSDDEFVPYDMSGDRELKSSKAPAYVRDCVEALTTSEDIERWEAALRALEGLVYRSPTATREVSVELAKVLLHLEEKTCVVGFAGLRQRALVAVTVTDPAPVADYLTSQFYALNYSLRQRMDILDVLTLAAQELSRPGCLGRTPQPGSPSPNTPCLPEAAVSQPGSAVASDWRVVVEERIRSKTQRLSKGGPRQGPAGSPSRFNSVAGHFFFPLLQRFDRPLVTFDLLGEDQLVLGRLAHTLGALMCLAVNTTVAVAMGKALLEFVWALRFHIDAYVRQGLLSAVSSVLLSLPAARLLEDLMDELLEARSWLADVAEKDPDEDCRTLALRALLLLQRLKNRLLPPASP

Variants of: B1
Conditions: with pihd1_human PIH1D1, Q9NWS0
Sequence of pihd1_human PIH1D1, Q9NWS0 (Q9NWS0 whole entry): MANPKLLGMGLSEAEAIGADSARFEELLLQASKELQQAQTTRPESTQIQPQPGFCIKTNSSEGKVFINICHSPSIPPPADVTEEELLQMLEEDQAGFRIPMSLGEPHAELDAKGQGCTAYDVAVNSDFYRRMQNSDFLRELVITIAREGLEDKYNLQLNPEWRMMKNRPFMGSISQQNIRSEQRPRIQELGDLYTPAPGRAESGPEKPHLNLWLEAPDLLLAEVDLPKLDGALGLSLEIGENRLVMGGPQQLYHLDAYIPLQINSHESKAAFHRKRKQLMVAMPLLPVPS

Variant | effect of a mutation on the interaction
D490A | disrupting interaction strength
D492A | disrupting interaction strength
D493A | disrupting interaction strength

Variants of: B1
Conditions: with pihd1_human PIH1D1, Q9NWS0
Remark: another data set of the same source

Variant | effect of a mutation on the interaction
D492A;D493A | disrupting interaction strength
